In patent US20220048990A1:

Columns and labels:
[1] = target: T1, Mouse polymeric immunoglobulin receptor (mouse) (UniProt O70570); test: SPR (Biacore)
T1 sequence (looked up): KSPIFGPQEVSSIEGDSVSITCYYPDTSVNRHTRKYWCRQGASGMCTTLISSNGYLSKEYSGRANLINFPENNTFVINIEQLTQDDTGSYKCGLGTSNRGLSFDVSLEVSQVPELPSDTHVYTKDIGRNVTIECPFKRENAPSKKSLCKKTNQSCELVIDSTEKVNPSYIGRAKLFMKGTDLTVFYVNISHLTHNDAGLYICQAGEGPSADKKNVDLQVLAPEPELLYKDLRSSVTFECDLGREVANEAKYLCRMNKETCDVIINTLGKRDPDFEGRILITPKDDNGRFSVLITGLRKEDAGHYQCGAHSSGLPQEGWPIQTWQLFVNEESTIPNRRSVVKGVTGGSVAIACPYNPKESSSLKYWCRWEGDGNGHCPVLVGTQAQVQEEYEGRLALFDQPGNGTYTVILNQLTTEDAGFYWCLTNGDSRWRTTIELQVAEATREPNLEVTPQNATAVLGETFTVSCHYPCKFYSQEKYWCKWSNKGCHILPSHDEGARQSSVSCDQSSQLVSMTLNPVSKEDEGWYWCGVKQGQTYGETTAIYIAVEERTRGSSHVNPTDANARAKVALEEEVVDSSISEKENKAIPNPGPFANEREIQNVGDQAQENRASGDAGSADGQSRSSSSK

[2] = target: Human polymeric immunoglobulin receptor (human) (UniProt P01833); test: SPR (Biacore)
[3] = target: T1, Mouse polymeric immunoglobulin receptor (mouse); test: SPR (Biacore); panel shown again on D00107
Human FcαRI (human) = Human FcαRI (human) (UniProt P24071); test: Wasatch array SPR, antibody immobilised, n>=3
UniProt P24071, sequence (P24071 22-227 limits assumed): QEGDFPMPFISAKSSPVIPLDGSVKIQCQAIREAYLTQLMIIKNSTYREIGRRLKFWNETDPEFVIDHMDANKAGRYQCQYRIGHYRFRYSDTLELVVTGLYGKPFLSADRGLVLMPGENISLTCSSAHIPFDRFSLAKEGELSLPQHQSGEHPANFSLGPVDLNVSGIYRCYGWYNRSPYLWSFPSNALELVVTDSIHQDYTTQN

UniProt P01833, sequence (P01833 19-638 limits assumed): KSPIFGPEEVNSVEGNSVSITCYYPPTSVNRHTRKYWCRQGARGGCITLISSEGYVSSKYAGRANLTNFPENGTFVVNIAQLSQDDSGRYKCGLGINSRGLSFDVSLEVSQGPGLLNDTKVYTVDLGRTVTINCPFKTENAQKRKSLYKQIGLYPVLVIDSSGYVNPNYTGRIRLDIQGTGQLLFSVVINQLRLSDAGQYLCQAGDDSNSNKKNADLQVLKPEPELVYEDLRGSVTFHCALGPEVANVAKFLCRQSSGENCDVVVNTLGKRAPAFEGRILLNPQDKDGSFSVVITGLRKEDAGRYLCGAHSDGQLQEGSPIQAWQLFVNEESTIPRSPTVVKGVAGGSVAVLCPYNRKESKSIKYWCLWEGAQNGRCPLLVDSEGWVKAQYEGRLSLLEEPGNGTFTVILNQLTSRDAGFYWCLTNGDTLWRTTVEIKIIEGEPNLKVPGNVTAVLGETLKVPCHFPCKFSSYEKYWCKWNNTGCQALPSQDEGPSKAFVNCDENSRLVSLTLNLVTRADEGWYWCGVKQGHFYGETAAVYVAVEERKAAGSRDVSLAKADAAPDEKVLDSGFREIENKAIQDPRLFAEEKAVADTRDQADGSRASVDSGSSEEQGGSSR

Row | Kd [1] [nM] | Kd [2] [nM] | Kd [3] [nM] | Kd (Human FcαRI (human)) [nM] | Substance
1 | 0.79 | 0.98 | 0.79 | – | Glycosylated IgA2m2.Fc only Tetramer
2 | – | – | – | 1750 | Human serum IgA monomer (antibody)
